Results as given in the supplement of paper PMC12636428.

Tested on: Saccharomyces cerevisiae
Assay: transcriptional activation domain activity (GFP:mCherry ratio, weighted mean of sorted bins, harmonized to initial dataset scale) (arbitrary fluorescence ratio units); higher = stronger transcriptional activation
Conditions: beta-estradiol 1 µM; induction time 4 h
Summary of the method: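 Sorting into 8 bins by GFP:mCherry ratio followed a 4-hour hold at 30 °C after cultures were diluted 1:5 into SC with 1 uM beta-estradiol. The yeast diploids carried a GFP reporter and had barcoded protein tiles, fused to an estradiol-inducible synthetic transcription factor, integrated at URA3. Barcodes were then sequenced, and tiles with under 50 reads were removed. Activation activity is the read-weighted mean of bin median fluorescence, averaged across barcodes and linearly mapped onto the initial dataset scale.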

Sequence	transcriptional activation domain activity
MIHGLQSYNLSFLIFFLFLLSSLFVLFVMLSKFAFVLFVDTLYCLIPYVFLFF	42500
NDTKKNMSTSNLFPFSFSNTDLTALFTHPEGPNCTNTNNGNVDVCNRASTDAT	51400
ATGAGSDANAGEDETFHKSGEATLSSQHRYKDAIDFRKIVLKLTDGVRWGLGI	37200
GACLQDIAMVGFIDTNSIGCVASSVVLYLSLVFIIGVVAIRFFMAVMFQWFFS	35600
ADTILITMVGIFDLIACFFTCIVQVLRFKMGISVQEILIWCWFDLLIFSTSTF	34300
RDAEKGKEKRRSRSKNRDEKMEHAEEATGGEPSREHKADSGKKSRRSSIKKSS	29500
LFFIAVSQLGFVCSYLVFISGNLVNVVDVLSSCAAHLDQKYYIWIPLILVLPL	59900
MRQVHIVFSGRDSGRESDIEVVSETSVFHDAAFVLGCVLVRGRSFAAPLLTAL	32700
LIALPCLMAFATICFAFVAWKLYGEFAWTIYKHISADLRLKRRYLTYQIYIAL	50200
SMGENLFDVFRARVILTWYYWTHARWCDVYMSSVISLRLAVTCGLNGCPPFQT	75000
ESAPAAEDKPAEETKPAEAEEAPKAEEKKEEVKPIEEGHLNHKAQGLSFPKNL	< 6570
LFATLLKLRVDQLLIMMDPTDLIRSILLSNENHQVLSALDFCWTLMHSVFPLL	78100
KSGRGGGRKGGRGGGKASARGGAGGARGGGGGGRGGGGAHTERGRTGKGAGAS	21800
MGSGFCNGVFFYYLFFFFISLCVILSSFLLFFFSLPLFLGGLFFSTFLFLDAR	58900
VFRLYFYLLYFIFYRNLFARLRNWEQYTLIQVASSVWVIIFYPLRMTRTTHGL	65900
MSVVKEENPDTPGGTTVQDVDNRLRQLIQACSPFHMLKNHNLLVLYLLIVPSA	53700
RTFLRWTLDTLAQCTTFEVMWLILTGVIQDYIDEYKRNRTLTKLLIEALIKSY	55500
LYFTCNERVGACPPSFEYIYDTFFASVTSQEFWRSLFDLEAFYMYLGWYAFCV	65600
LASRNPPTATSPCTRTPAPAPAPRTASTTRASTPCTASTAPRAATSAACSPAA	53100
MKKKKGEGMKKERRRRGGEGGGKGALRREKKGTGTGKDGEREKQEKGEEGKCN	29900
MSHLLSSFLYDSLSFCFILLFGFDVILFPLFKYLWTTSSFYMFWMPDHLTLAV	73900

Sequence	transcriptional activation domain activity
GEAGAEGEAAAAEGEGAAEEGASGEGAEGEEAAAEEGEGAEEEGGEDLQALAT	< 6570
MLIIGRIARWYIHPIAIVWFYLLHVSHFLYFLLVAEFQPRYIHVYLYLYLLST	47400
MPEPAAAAAPRQRAFRTKSRLGCLQCKRRHVKCDERRPRCGRCVAAGSDCSLQ	17400
KEKEVKAEVEEDGSEQEEGEGEEEEEGATRSSARKGKGRATAGGRKTRRGAAG	19400
SASEIRVDSFRKIMSIPLAIFTLRPRHVFVAVRRVCRSCTNYLVVLALYMALF	51800
LLPGPPFPFPPLLLFFLVVFLSCSFFELSFMFLFFVYFFFISLFFCIFFFDNH	34700
PASPPIDRMERLHIRRTSPSPQGNYDEIRIDRARRISSSPPRRYEEVRVRHVS	26700
PSRLTSPSSRRLPSTPGPHPRKSTPRSKPPPSSPARRRSSSTTPTGRPSQPSS	24900
LPDLQWLVKFLVVAAHETGKNIVCRRAPGNLLSGNLVTLVSNVVLQRSPKRSY	47900
AMRSWSGLMVLSMYDFRPIRSLIASILFPNAAIRETVLDLLFSLLRIKPPAWA	38100
MCFRILLSFLHVHPLFENALFYEISLICLLISWRSSTCSMHLLFIFIFILFFC	42200
LWDANSFLTPMAQGLFKNLKSFEMLGMNCKVIRALILLIHRLWLLTNRLYRYN	34000
MCLLCHATLFSSCPYFSIFLVFSFFSFFSLFFFTSFLSLLLFMSLLPTYYHLY	43500
GSSGRRVRILGVCGLGRNYVMMRVIELGGILEGEVTIRRMAVSSHPSSVWIAT	67500
NAEYICHYKGGLIGKHFKSLAQVMPFLIQDLLLRTVLDGWTCIGELVVYVWHM	65800
MLLSIWCHHFTFLFFFFFFFDHRFFCFFYSHLFYAVSYSFLLLLLLLYELLLV	47100
MCLFVLCLGLLVFFPTRYLLRSAWIKFIKYFNLFLRIIDLGCLFCIPCLIIKY	42500
MTSRHSFKAIKVLVICCVFLFFLLLKRKDHFNSCCLIFHIKIGLIDVLIFFYF	41900
MEPRLGHPALLVYSLLLLLLILRWKMFSFLCVVFQWRCIMLFLVFLVFCWGVG	35900
IWIIQCCVLPLCLHFGSIFPGLQYTLLAFLPYYCCFSHYFPVLIPVLILICFI	63700
SDDGGSSSEIIRVLGGPSIGDIRSRLIRLMPSAPPNSPLDAICRLLAYRLPVQ	37600

Sequence	transcriptional activation domain activity
EDTVHSVRVKAHRMKKSESGETGWAELGVGVLRLKTHKETASRRMLLRNSGNG	58000
TAPSATSAAALVTSPATALRVAMVVSRAAAPAAATTVPARARPATPAVVSATC	51300
STDALLARLVGHLHINPVSQKLVVAFDKIATCLQEVRACIVQRILPFAQRYKQ	62400
MFCLRSWIPLLFIPANASPGFIFLFFVCTYFLNRPCVYCSILLLILFVTSCYW	41000
FVTLFGLAYFILTILPCLDHSCPYRTPMSSLWWYLWHMSLSSATLCLCWLLRL	33600
FLWGGRHGFVGFCIPLILLFFMLLSCISFCISILHFFFVLSFLLNFFCEFFLR	36100
GKKKKAKKAEVRKARAKASDRAKAKAKAAGPSRASKKAAAPARAKSGDGGKDK	21600
LSAIVWQIVVDYFYDFVYLTSGLLWPPPTDFIMHTEHFYAGQLIVLLFFYTSL	69200
KIISAFGWNADKHLGFALLQLCMDGNRIRSPLAAMMLLMYYVTLMTHCPQILT	63700
FQTFYSNFKRKVLVWSLRFTNLTYNQPLVWHATFVYILALLSMPWFKAKFIPS	43800
MAAGFFFFFFLLSFPLFLSFFFCFPFFFSLPSGISFCLPFAPGVVSSFPFPTR	53800
EAARKETDAEGVRKTKVKKSRKRKAPEDGLEADEEGAARRTARARKTPAEAEA	28700
MYGNLTYTEWSRYLADMLSMQKLLFVSVEANCRERILLLRISGRCPQLCPLWA	47200
HFLGALIMLLGGYFHANLIHFGSYIWPSFLVWGLDRLIRLARVVYFNHLYFGF	34500
MGLWARFICFVIVCFQIISLYCLFSCSLFFLYLQKTQPHFFLLSLFPSSFPPS	62700
KREQREKEKEAEREREREKAARAARRESRREERTRREDEKERGARHEERTSRY	28000
GNGGAGAGAGGANANANANANAGNGAAAAGGNNAATAATGGGKAAKAAAAAAA	22600
SDDSSEASAIDSGDSSSQSSSDSDSEDAKKKTRRKTAKAKAKAKSKSKNSKKV	24800
TTKPKEASKPKEDPKPRSKSPVKKEETKVEKPKEDPPKAEAKSIPATTAAAAV	59300
EEKDTKGGPATTSKAVVKGSKSAADKKKLVKGDAKGKVPENGKRDKSEEKDEK	21800
DLARSQKFILCSIKHWGSYLFLFFSCRSFNLFFNHSYFSFCLNISFFLCSVFL	77800

Sequence	transcriptional activation domain activity
DAAAEKSGNDVSEKSSGPRAKRRKVDPELDTVDEEPKKQRSKKRVKVSVPNGI	45800
SCIVLYACSKIIIYLFLMEKVYVVTAVGATRANFMLYRINLSLLIPYVGIFAL	52300
ILRLSVVLKPHHYWWFLLHLLLILLLVAFTCSSFLILKHGPVWILALFLLLHI	45400
RGTQKREKRGKEKGEGGTWGRAEGEGKRGGKEKGRREEKRGKKKEAGGAGGRG	23500
GGIIMAFFLRLNFGLWGICIALFGLRGQAELPLLIHVQRHILSIYVIIPRWFW	56300
YSPLYLAITFAVQYGISFTSMTAVVVRTILWYRHDITWTFTLIYSSLGVAAFV	63700
MGRLLLLICFNTSGRLPFLLPLLLFFFFLLFFLYPPLHIFSFSFSLSPSNVPP	35200
LHRLHLARVTVDKEGKLVSTTNMTILNLWLVWRGPMREDRLTIEITLFQAFVG	26400
GASPEESNSGNSRAGASRARKGSKVIDENMVEDALLGLQITHGCLVHHTASVQ	44800
YSMPSEICIVGFSGVNTAFIVSLLVDLGFQASPIYSMYMFFLTWRFCARLVHY	66500
VNHIVAYITLGIVGFCFLSYITLTLMPLIFHDCPYYTPFTSLLWYSAQIIPFF	33600
VRSTRRSLYFWSCLTCSWGIIIHLLFILLLNFKIFENYGALVVVHFTWCIYVV	63300
MLLIWLYALKTGLVLSGSFLLAFGTQYPFFFMYFIGKPLFHDSFFLLSFLFFP	70200
MEFPTPTCFLSFFSFFFHIVFVAYCVAYFSLSRFLFVPSFFFLFLLSYFRLLQ	67500
WYWLATTMYFLYGESVIYYFKHVVLVDKVLLPLATHHRFISFMLYIIGFVFFV	60400
EKGNKRNDEEKGRGGEGRSTGRERREAKNGSAEGEGRERKQRRDGGEAGEGGT	45400
GMCVCTYRLHRCSHVKSRGRRFLCLHVLLCDVMMGPLTEWWCPLLRMMVKVYL	47800
RLCYERFILCLICLPILYLPLVLILGIFIALSLTYIIFISFDPIISSMWYLAL	68400
LRAIFLALLPVVYYFTYMLVLFLFLLTYYNPFSPFSHAVRPITPPLISIFSSF	67800
LSSSPSSQSASSTSTVLVVGTDDKKVKEAGDELKSKLGVKGGGKGPRWSGKFT	23800
